Measured values reported in patent publication US20210238298A1 (ALLIGATOR BIOSCIENCE, published 2021).
Substitutions are numbered along the chain they refer to.

T1: Human OX40 (R&D systems, #3358_OX) (human, UniProt P43489 29-216)
T1 construct: Bought; Several catalogue numbers are given for it; also called human OX40 (R&D Systems, 3388-OX); OX40-Fc (R&D systems, #3358_OX); not shown: Fc part
T1 sequence: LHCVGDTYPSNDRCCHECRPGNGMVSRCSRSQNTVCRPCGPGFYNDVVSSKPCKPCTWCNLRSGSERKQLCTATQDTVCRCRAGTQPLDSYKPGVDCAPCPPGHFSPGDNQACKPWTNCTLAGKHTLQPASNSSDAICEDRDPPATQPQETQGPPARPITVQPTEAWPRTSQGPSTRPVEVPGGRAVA

T2: OX40 chimera 1545: human OX40 with mouse domains 1B, 2A and 2B (aa 43-107), on FreeStyle 293-F cells (human; mouse, UniProt P47741 39-103)
T2 construct: domain: 1B, 2A and 2B; Limits derived as for 1544
T2 sequence: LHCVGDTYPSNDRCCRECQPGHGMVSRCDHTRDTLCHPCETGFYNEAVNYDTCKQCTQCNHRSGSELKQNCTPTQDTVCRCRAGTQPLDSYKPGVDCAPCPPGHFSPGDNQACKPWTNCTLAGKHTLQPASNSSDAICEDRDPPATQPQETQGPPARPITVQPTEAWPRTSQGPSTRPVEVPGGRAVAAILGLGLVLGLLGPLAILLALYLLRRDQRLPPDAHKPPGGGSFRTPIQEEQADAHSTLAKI

T3: OX40 chimera 1546: human OX40 with mouse domains 2A, 2B and module 3 (aa 66-126), on FreeStyle 293-F cells (human; mouse, UniProt P47741 62-124)
T3 construct: domain: 2A, 2B and module 3; Limits derived as for 1544
T3 sequence: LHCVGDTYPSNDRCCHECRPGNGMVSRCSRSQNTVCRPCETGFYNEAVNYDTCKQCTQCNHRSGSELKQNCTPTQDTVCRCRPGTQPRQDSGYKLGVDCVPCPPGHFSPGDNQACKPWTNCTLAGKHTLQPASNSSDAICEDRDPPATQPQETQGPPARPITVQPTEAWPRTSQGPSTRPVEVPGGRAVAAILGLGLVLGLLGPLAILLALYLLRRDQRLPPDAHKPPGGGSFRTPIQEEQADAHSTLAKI

T4: OX40 chimera 1547: human OX40 with mouse domain 2B, module 3 and domain 4A (aa 83-141), on FreeStyle 293-F … (human; mouse, UniProt P47741 79-139)
T4 construct: domain: 2B, module 3 and 4A; Limits derived as for 1544
T4 sequence: T3 sequence with E40G, T41P, E46D, A47V, N49S, Y50S, D51K, T52P, D111N

T5: OX40 chimera 1548: human OX40 with mouse module 3 and domains 4A and 4B (aa 108-167), on FreeStyle 293-F cells (human; mouse, UniProt P47741 104-165)
T5 construct: domain: module 3, 4A and 4B; Limits derived as for 1544
T5 sequence: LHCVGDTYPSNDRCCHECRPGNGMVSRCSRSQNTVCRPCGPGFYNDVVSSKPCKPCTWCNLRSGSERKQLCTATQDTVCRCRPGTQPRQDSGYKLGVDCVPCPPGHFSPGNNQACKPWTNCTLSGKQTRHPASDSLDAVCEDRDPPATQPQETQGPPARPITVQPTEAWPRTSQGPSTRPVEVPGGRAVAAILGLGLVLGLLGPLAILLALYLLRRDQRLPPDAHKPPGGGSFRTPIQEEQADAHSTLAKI

B1: anti-OX40 antibody 1482/1483 (antibody, V domains shown)
VH: EVQLLESGGGLVQPGGSLRLSCAASGFTFSSYAMSWVRQAPGKGLEWVSYISYYSGYTYYADSVKGRFTISRDNSKNTLYLQMNSLRAEDTAVYYCARGYGYLDYWGQGTLVTVSS
VL: DIQMTQSPSSLSASVGDRVTITCRASQSISSYLNWYQQKPGKAPKLLIYAASSLQSGVPSRFSGSGSGTDFTLTISSLQPEDFATYYCQQYGSLLTFGQGTKLEIK
notes: Tested as IgG
B2: anti-OX40 antibody 1524/1525 (antibody, V domains shown)
VH: EVQLLESGGGLVQPGGSLRLSCAASGFTFGSYYMGWVRQAPGKGLEWVSSIGSYYGYTYYADSVKGRFTISRDNSKNTLYLQMNSLRAEDTAVYYCARHDYGALDYWGQGTLVTVSS
VL: DIQMTQSPSSLSASVGDRVTITCRASQSISSYLNWYQQKPGKAPKLLIYAASSLQSGVPSRFSGSGSGTDFTLTISSLQPEDFATYYCQQYGPSGLFTFGQGTKLEIK
notes: Tested as IgG
B3: anti-OX40 antibody 1526/1527 (antibody, V domains shown)
VH: EVQLLESGGGLVQPGGSLRLSCAASGFTFSGYSMYWVRQAPGKGLEWVSGIGYSGYGTYYADSVKGRFTISRDNSKNTLYLQMNSLRAEDTAVYYCARYYFHDYAAYSLDYWGQGTLVTVSS
VL: B2 VL with P93S, S94D, G95S, F97L
notes: Tested as IgG
B4: anti-OX40 antibody 1168/1135 (antibody, V domains shown)
VH: EVQLLESGGGLVQPGGSLRLSCAASGFTFSGSSMSWVRQAPGKGLEWVSSISYYGGYTYYADSVKGRFTISRDNSKNTLYLQMNSLRAEDTAVYYCARYFPHYYFDYWGQGTLVTVSS
VL: not shown
notes: Tested as IgG
B5: anti-OX40 antibody 1164/1135 (antibody, V domains shown)
VH: B4 VH with S30Y, S35Y, S50G, S52Y, Y53S, Y54S, Y59S, Y99G, F100V, Y103G
VL: not shown
notes: Tested as IgG
B6: anti-OX40 antibody 1542/1135 (antibody, V domains shown)
VH: EVQLLESGGGLVQPGGSLRLSCAASGFTFGSSSMYWVRQAPGKGLEWVSGIGYYSYSTSYADSVKGRFTISRDNSKNTLYLQMNSLRAEDTAVYYCARGYPHHYFDYWGQGTLVTVSS
VL: not shown
notes: Tested as IgG

target: T1, Human OX40 (R&D systems, #3358_OX); assay: ELISA, coated human OX40
Method: ELISA plates were coated with human OX40 (R&D Systems, 3388-OX), CD40 (Ancell), or CD137 (R&D Systems) at 0.1 or 0.5 μg/ml. The ELISA plates were washed with PBST and then blocked with PBST+2% BSA for 1h at room temperature and then washed again with PBST. The antibodies were added in dilution series to the ELISA plates for 1 h at room temperature and then washed with PBST. Binding was detected using goat anti human kappa light chain HRP, incubated for 1h at room temperature. SuperSignal Pico Luminescent was used as substrate and luminescence was measured using Fluostar Optima.

| Binder | EC50 [nM] |
| --- | --- |
| B1 | < 1 |
| B2 | < 1 |
| B3 | < 1 |
| B4 | < 1 |
| B5 | < 1 |
| B6 | < 1 |

target: T2, OX40 chimera 1545: human OX40 with …; assay: flow cytometry, 293-F transfectants
Method: (§1) The mouse/human chimeras were transiently transfected into FreeStyle 293-F cells (Invitrogen), incubated 48 hours in FreeStyle 293 expression medium (Invitrogen) 37 C, 8% CO₂, 135 rpm. The transfected cells were incubated with human OX40 antibodies, human OX40L (hOX40L, RnD Systems), mouse OX40L (mOX40L, RnD Systems) and controls for 30 min 4° C. and then detected with a-huIgG-PE (Jackson Immunoresearch) 30 min 4° C. Cells were analyzed with FACS Verse (BD Biosciences). Binding to the different chimeric constructs were calculated as relative (mean fluorescence intensity) MFI compared to the binding of the isotype control.

| Binder | relative MFI vs isotype control |
| --- | --- |
| B1 | 44.4 |
| B2 | 0.9 |
| B3 | 1.3 |
| B4 | 46.6 |
| B5 | 37.3 |
| B6 | 40.2 |

target: T3, OX40 chimera 1546: human OX40 with …; assay: flow cytometry, 293-F transfectants
Method: as §1

| Binder | relative MFI vs isotype control |
| --- | --- |
| B1 | 0.9 |
| B2 | 0.9 |
| B3 | 0.9 |
| B4 | 0.9 |
| B5 | 0.9 |
| B6 | 0.9 |

target: T4, OX40 chimera 1547: human OX40 with …; assay: flow cytometry, 293-F transfectants
Method: as §1

| Binder | relative MFI vs isotype control |
| --- | --- |
| B1 | 1 |
| B2 | 1 |
| B3 | 1 |
| B4 | 1 |
| B5 | 1 |
| B6 | 1 |

target: T5, OX40 chimera 1548: human OX40 with …; assay: flow cytometry, 293-F transfectants
Method: as §1

| Binder | relative MFI vs isotype control |
| --- | --- |
| B1 | 1.1 |
| B2 | 15.4 |
| B3 | 12.7 |
| B4 | 1 |
| B5 | 1 |
| B6 | 1.2 |

target: T1, Human OX40 (R&D systems, #3358_OX); assay: SPR (Biacore), immobilised human OX40
Method: Human OX40 (R&D systems, #3358_OX) was immobilized to the Biacore™ sensor chip, CM5, using conventional amine coupling. The tested antibodies and controls (serially diluted ⅓ or ½ 100-2 nM) were analyzed for binding in HBS-P (GE, #BR-1003-68) at a flow rate of […]. The association was followed for 3 minutes and the dissociation for 20 minutes. Regeneration was performed twice using 50 mM NaOH for 60 seconds. The kinetic parameters and the affinity constants were calculated using 1:1 Langmuir model with drifting baseline. […] The kinetic parameters and the affinity constants were calculated using BIAevaluation 4.1 software.

| Binder | Kd [nM] | koff [s⁻¹] | kon [M⁻¹ s⁻¹] |
| --- | --- | --- | --- |
| B1 | 0.753 | 0.000584 | 776000 |
| B2 | 0.811 | 0.00139 | 1.71e+06 |
| B3 | 0.43 | 0.000187 | 435000 |
| B4 | 0.327 | 0.000169 | 518000 |
| B5 | 0.308 | 7.73e-05 | 251000 |
| B6 | 0.463 | 0.0001 | 216000 |
